Results taken from US20140348865A1, “[…] ON AN HIV-1 V1V2 SITE-OF-VULNERABILITY” (The United States of America, as represented by the …, priority 2011, published 2014).

Experiments:
[1] = target: Env of HIV-1 strain RHPA (pseudovirus) (HIV-1)
[2] = target: Env of HIV-1 strain 7165.18 (pseudovirus) (HIV-1)
[3] = target: Env of HIV-1 strain JRFL (pseudovirus) (HIV-1)
[4] = target: Env of HIV-1 strain CNE4 (pseudovirus) (HIV-1)
[5] = target: Env of HIV-1 strain BG 1168 (pseudovirus) (HIV-1)
[6] = target: Env of HIV-1 strain T251-18 (pseudovirus) (HIV-1)
[7] = target: Env of HIV-1 strain QH0515 (pseudovirus) (HIV-1)
[8] = target: Env of HIV-1 strain CNE30 (pseudovirus) (HIV-1)
[9] = target: Env of HIV-1 strain 6471 (pseudovirus) (HIV-1)
[10] = target: Env of HIV-1 strain 6322 (pseudovirus) (HIV-1)
[11] = target: Env of HIV-1 strain ZM135 (pseudovirus) (HIV-1)

Substance: monoclonal antibody PG9
- neutralization IC50 [1]: > 50 µg/mL
- neutralization IC50 (TRJO.58): 0.246 µg/mL
- neutralization IC50 (SF162.LS): > 50 µg/mL
- neutralization IC50 [2]: > 50 µg/mL
- neutralization IC50 (WITO.33): < 0.023 µg/mL
- neutralization IC50 (HT593.1): 0.271 µg/mL
- neutralization IC50 (JR-CSF): 3 ng/mL
- neutralization IC50 (YU2.DG): 3.69 µg/mL
- neutralization IC50 (CNE12): > 50 µg/mL
- neutralization IC50 (T280-5): 0.379 µg/mL
- neutralization IC50 (T266-60): 24 µg/mL
- neutralization IC50 (REJO.67): 5 ng/mL
- neutralization IC50 (CAAN.A2): 13 µg/mL
- neutralization IC50 (SS1196.01): 0.293 µg/mL
- neutralization IC50 (DJ263.8): 0.1 µg/mL
- neutralization IC50 (TRO.11 (pseudovirus)): 41.5 µg/mL
- neutralization IC50 (BL01.DG): > 50 µg/mL
- neutralization IC50 (PVO.04): 6.24 µg/mL
- neutralization IC50 (ADA.DG): 0.342 µg/mL
- neutralization IC50 (CNE14): > 50 µg/mL
- neutralization IC50 (QH0692.42 (pseudovirus)): > 50 µg/mL
- neutralization IC50 (THRO.18): 15 µg/mL
- neutralization IC50 [3]: > 50 µg/mL
- neutralization IC50 (CNE10): 0.243 µg/mL
- neutralization IC50 [4]: > 50 µg/mL
- neutralization IC50 [5]: > 50 µg/mL
- neutralization IC50 (HXB2.DG): 0.553 µg/mL
- neutralization IC50 (T250-4): < 0.6 ng/mL
- neutralization IC50 (T33-7): < 0.023 µg/mL
- neutralization IC50 (SC422.8): 0.535 µg/mL
- neutralization IC50 [6]: > 50 µg/mL
- neutralization IC50 (BX08_16): 0.024 µg/mL
- neutralization IC50 (HO86.8): 14 ng/mL
- neutralization IC50 (BR07.DG): > 50 µg/mL
- neutralization IC50 (89.6.DG): > 50 µg/mL
- neutralization IC50 (MN.3): > 50 µg/mL
- neutralization IC50 (T255-34): 0.015 µg/mL
- neutralization IC50 (T253-11): 0.127 µg/mL
- neutralization IC50 (AC10.29): 0.078 µg/mL
- neutralization IC50 (T257-31): 0.02 µg/mL
- neutralization IC50 (T278-50): 0.913 µg/mL
- neutralization IC50 (BaL.26): 0.034 µg/mL
- neutralization IC50 (Bal.01): 0.052 µg/mL
- neutralization IC50 [7]: > 50 µg/mL
- neutralization IC50 (CH038.12): 0.5 µg/mL
- neutralization IC50 [8]: > 50 µg/mL
- neutralization IC50 (CNE57): > 50 µg/mL
- neutralization IC50 (CH117.4): 8 ng/mL
- neutralization IC50 (3168.V4.C10): 0.162 µg/mL
- neutralization IC50 (DU151.02): < 0.023 µg/mL
- neutralization IC50 (MW965.26): 1.99 µg/mL
- neutralization IC50 [9]: > 50 µg/mL
- neutralization IC50 (0077_V1.C16): 0.091 µg/mL
- neutralization IC50 (CNE58): < 0.023 µg/mL
- neutralization IC50 (DU123.06): 0.091 µg/mL
- neutralization IC50 (ZM176.66): 7 ng/mL
- neutralization IC50 (CAP210.E8): 0.087 µg/mL
- neutralization IC50 (ZM146.7): 0.635 µg/mL
- neutralization IC50 (CH070.1): 6 ng/mL
- neutralization IC50 (CNE31): 13.5 µg/mL
- neutralization IC50 (ZM106.9): 0.639 µg/mL
- neutralization IC50 (TZA125.17): 0.231 µg/mL
- neutralization IC50 (96ZM651.02): > 50 µg/mL
- neutralization IC50 [10]: > 50 µg/mL
- neutralization IC50 (DU172.17): 0.262 µg/mL
- neutralization IC50 (CNE15): < 0.023 µg/mL
- neutralization IC50 (BR025.9): 0.044 µg/mL
- neutralization IC50 (CNE7): 1.66 µg/mL
- neutralization IC50 [11]: > 50 µg/mL
- neutralization IC50 (TZBD.02): 0.266 µg/mL
- neutralization IC50 (DU156.12): < 0.023 µg/mL

Substance: monoclonal antibody PG16
- neutralization IC50 [1]: 1.32 µg/mL
- neutralization IC50 (TRJO.58): 0.393 µg/mL
- neutralization IC50 (SF162.LS): > 50 µg/mL
- neutralization IC50 [2]: > 50 µg/mL
- neutralization IC50 (WITO.33): < 0.023 µg/mL
- neutralization IC50 (HT593.1): 0.153 µg/mL
- neutralization IC50 (JR-CSF): 2 ng/mL
- neutralization IC50 (YU2.DG): 0.041 µg/mL
- neutralization IC50 (CNE12): > 50 µg/mL
- neutralization IC50 (T280-5): 0.233 µg/mL
- neutralization IC50 (T266-60): > 50 µg/mL
- neutralization IC50 (REJO.67): 5 ng/mL
- neutralization IC50 (CAAN.A2): 7.43 µg/mL
- neutralization IC50 (SS1196.01): 0.069 µg/mL
- neutralization IC50 (DJ263.8): 0.048 µg/mL
- neutralization IC50 (TRO.11 (pseudovirus)): 4.86 µg/mL
- neutralization IC50 (BL01.DG): > 50 µg/mL
- neutralization IC50 (PVO.04): 19.8 µg/mL
- neutralization IC50 (ADA.DG): 0.023 µg/mL
- neutralization IC50 (CNE14): > 50 µg/mL
- neutralization IC50 (QH0692.42 (pseudovirus)): > 50 µg/mL
- neutralization IC50 (THRO.18): 0.975 µg/mL
- neutralization IC50 [3]: > 50 µg/mL
- neutralization IC50 (CNE10): 9.17 µg/mL
- neutralization IC50 [4]: > 50 µg/mL
- neutralization IC50 [5]: > 50 µg/mL
- neutralization IC50 (HXB2.DG): > 50 µg/mL
- neutralization IC50 (T250-4): < 0.6 ng/mL
- neutralization IC50 (T33-7): < 0.023 µg/mL
- neutralization IC50 (SC422.8): 1.2 µg/mL
- neutralization IC50 [6]: 10.5 µg/mL
- neutralization IC50 (BX08_16): 0.062 µg/mL
- neutralization IC50 (HO86.8): 1 ng/mL
- neutralization IC50 (BR07.DG): > 50 µg/mL
- neutralization IC50 (89.6.DG): > 50 µg/mL
- neutralization IC50 (MN.3): > 50 µg/mL
- neutralization IC50 (T255-34): 0.005 µg/mL
- neutralization IC50 (T253-11): 4.44 µg/mL
- neutralization IC50 (AC10.29): < 0.023 µg/mL
- neutralization IC50 (T257-31): 0.003 µg/mL
- neutralization IC50 (T278-50): 1.13 µg/mL
- neutralization IC50 (BaL.26): 0.136 µg/mL
- neutralization IC50 (Bal.01): 8 µg/mL
- neutralization IC50 [7]: > 50 µg/mL
- neutralization IC50 (CH038.12): 49 µg/mL
- neutralization IC50 [8]: > 50 µg/mL
- neutralization IC50 (CNE57): > 50 µg/mL
- neutralization IC50 (CH117.4): 5 ng/mL
- neutralization IC50 (3168.V4.C10): 0.037 µg/mL
- neutralization IC50 (DU151.02): < 0.023 µg/mL
- neutralization IC50 (MW965.26): 0.961 µg/mL
- neutralization IC50 [9]: > 50 µg/mL
- neutralization IC50 (0077_V1.C16): < 0.023 µg/mL
- neutralization IC50 (CNE58): < 0.023 µg/mL
- neutralization IC50 (DU123.06): < 0.023 µg/mL
- neutralization IC50 (ZM176.66): 2 ng/mL
- neutralization IC50 (CAP210.E8): < 0.023 µg/mL
- neutralization IC50 (ZM146.7): 0.767 µg/mL
- neutralization IC50 (CH070.1): 2 ng/mL
- neutralization IC50 (CNE31): 2.51 µg/mL
- neutralization IC50 (ZM106.9): 1.1 µg/mL
- neutralization IC50 (TZA125.17): 0.024 µg/mL
- neutralization IC50 (96ZM651.02): > 50 µg/mL
- neutralization IC50 [10]: > 50 µg/mL
- neutralization IC50 (DU172.17): 0.03 µg/mL
- neutralization IC50 (CNE15): < 0.023 µg/mL
- neutralization IC50 (BR025.9): 0.009 µg/mL
- neutralization IC50 (CNE7): 0.393 µg/mL
- neutralization IC50 [11]: > 50 µg/mL
- neutralization IC50 (TZBD.02): 0.025 µg/mL
- neutralization IC50 (DU156.12): < 0.023 µg/mL
